Data as given in patent US6022955A, “Fatty acid -- pulmonary surfactant conjugates” (Abbott Laboratories, priority 1991, dated 2000).
Ends that are not written are not given here.

Experiments:
Format in all cases: physicochemical
[1] = Adsorption rate, King-Clements system (Wilhelmy balance, stirred Teflon dish); conditions: 10 ml of diluted sample (1:50) added under constant agitation to 70 ml saline subphase; 37° C.; total peptide 0.5 mg/ml
Procedure: A procedure similar to that described by Notter, et al., Pediatric Res. 16, 515-519, (1982) was employed to determine the absorption rate in the absence of diffusion resistance. The modified Wilhelmy surface balance as described above was used. However, instead of using a Langmuir trough a round Teflon dish (5.1 cm diameter) was employed. The subphase, 70 ml of 0.15 M NaCl, was allowed to equilibrate to 37° C. in the incubator and was continuously stirred with a Teflon coated magnetic stirer. An aliquot of the peptide/lipid admixture containing 5 mg of total phospholipid was dispersed in 10 ml of 0.15 M NaCl by vortexing for 10 seconds. This dispersion was then added to the saline subphase. Surface tension lowering was monitored using a strip chart recorder connected to the electrobalance output and data collected for 20 minutes.

[2] = Modified Wilhelmy surface balance (Langmuir trough): dynamic surface tension vs compressed surface area; conditions: 37° C.; for Equilibrum (equilibrium adsorption value): after a three (3) minute spreading time, total peptide 0.5 mg/ml; for Wilhelmy-Langmuir Trough Max (maximum dynamic surface tension) / Wilhelmy-Langmuir Trough Min (minimum dynamic surface tension): peptide/lipid admixture, total peptide 0.5 mg/ml (2%; two peptides 0.25 mg/ml each), 675 μg phospholipid, seven compression-expansion cycles, average of 3 runs
Source text: The dynamic surface tension lowering properties of the peptide/lipid admixtures were studied using a modified Wilhelmy Surface Balance (Langmuir Trough). The instrument consists of an all Teflon trough and movable Teflon ribbon (dam) barrier system which completely contains and defines a variable surface area. Surface area was varied through the use of a constant rate reversible 3-phase motor to drive the Teflon barrier. A Cahn 2000 electrobalance (Cahn Instruments, Cerittos, Calif.) with a sandblasted 1 cm platinum plate and stainless steel hangdown wire was employed to determine the surface tension at the liquid-air interface. The entire apparatus was situated in a thermostated incubator set at 45° C. Surface area-surface tension measurements were made by adding 950 ml of 0.15 M NaCl to the trough. Subphase temperature was controlled during the measurements at 36-38° C.
For each experiment 27 ul of peptide/lipid admixture was applied in a random array of 13 (.congruent.2 ul) droplets to the surface of the temperature controlled subphase and allowed to spread spontaneously for 3 minutes. (The 27 ul application corresponds to 675 ug of phospholipid). The trough surface area was then cycled from a maximum (445 sq. cm) to a minimum (178 sq. cm) surface area and back to maximum at a cycling rate of 3 cycles/min (compression ratio 2.5:1). The dynamic surface tension vs surface area was recorded for 7 complete compression-expansion cycles for each application.

[3] = Pulsating bubble surfactometer (PBS); conditions: after 100 cycles (5 minutes, 20 cycles/minute); phospholipid 1 mg/ml; 37° C.; […] NaCl; mean of triplicate
Procedure: The PBS equipment (Electronetics, Buffalo, N.Y.) used was essentially equivalent to that described in detail by G. Enhorning, J. Appid. Physiol. 43, 198-203, (1977). Recordings were made of the pressure gradient across the wall of a small air bubble, communicating with ambient air by means of a narrow chimney stack, but otherwise entirely surrounded by a 40 ul volume of the peptide/lipid admixture. The admixture concentration employed for these studies was 1 mg/ml total phospholipid (0.02 mg/ml total peptide) and the diluent was 0.15 M NaCl. Immediately prior to loading the sample chamber, the diluted samples were sonicated for 15 seconds to remove any gas nuclei.
The pressure drop across the air-water interface was measured during pulsation by a pressure transducer, and the corresponding surface tension determined through the application of Young's law and the Laplace equation. Measurements were all made at 37° C. and the bubble pulsed at 20 cycles/minute to render respectively a maximum (1.1. mm) and a minimum (0.8 mm) bubble diameter. (This compression/expansion corresponds to a 50% change in the surface area of the air-water interface).

For “SPB (53-78): synthetic C-terminal SP-B fragment (YSVILLDTLLGRMLPQLVCRLVLRCS; ends and bridges not checked; cysteine pairing not given here; UniProt P07988 253-278, looked up, fragment)”, the “King-Clements Adsorption (surface tension)” value [1] was 45.0 dynes/cm, the “Equilibrum (equilibrium adsorption value)” value [2] was 40.0 dynes/cm and the “Wilhelmy-Langmuir Trough Max (maximum dynamic surface tension)” value [2] was 49.3 dynes/cm. The “Wilhelmy-Langmuir Trough Min (minimum dynamic surface tension)” value [2] was 0.1 dynes/cm, the “Surface Tension Values Maximum (pulsating bubble apparatus)” value [3] was 55.5 dynes/cm and the “Surface Tension Values Minimum (pulsating bubble apparatus)” value [3] was 4.9 dynes/cm.

B1: SPB (1-78): synthetic full length SP-B peptide, sequence based on natural SP-B (peptide, UniProt P07988 201-279, looked up)
Pulmonary …: FPIPLPYCWLCRALIKRIQAMIPKGALAVAVAQVCRVVPLVAGGICQCLAERYSVILLDTLLGRMLPQLVCRLVLRCSM
modifications: Pulmonary surfactant-associated protein B
For B1, the “King-Clements Adsorption (surface tension)” value [1] was 30.0 dynes/cm, the “Equilibrum (equilibrium adsorption value)” value [2] was 38.0 dynes/cm and the “Wilhelmy-Langmuir Trough Max (maximum dynamic surface tension)” value [2] was 45.0 dynes/cm. For the same molecule, the “Wilhelmy-Langmuir Trough Min (minimum dynamic surface tension)” value [2] was 0.0 dynes/cm, the “Surface Tension Values Maximum (pulsating bubble apparatus)” value [3] was 49.0 dynes/cm and the “Surface Tension Values Minimum (pulsating bubble apparatus)” value [3] was 4.2 dynes/cm.
